Source: article PMC6901440, “Bcl-2 regulates pyroptosis and necroptosis by targeting BH3-like domains in GSDMD and MLKL” (Cell Death Discovery, 2019)

Target: T1, Bcl-2 (endogenous, THP-1 cells) (human (endogenous in THP-1), UniProt P10415 1-239)
T1 construct: Bcl-2 (B-cell lymphoma 2), endogenous in the human macrophage cell line THP-1; immunoprecipitated with anti-Bcl-2 antibody; also called B-cell lymphoma 2; source: endogenous, THP-1 lysate
Assay: co-IP; endogenous proteins; Bcl-2 immunoprecipitated from THP-1 lysates; cells basal or LPS 50 ng/ml 5 h + nigericin 5 uM 30 min (Fig. 1b); PMA treated cells with or without TNFa 20 ng/ml, 100 nM Smac mimetic, 20 uM z-VAD-FMK for 3 h (Fig. 5d); lysis buffer 20 mM HEPES pH 7.4, 0.5% Triton X-100, 0.5% CHAPS, 10% glycerol; washed eight times
Settings: partners not purified

T1 sequence (P10415 whole entry): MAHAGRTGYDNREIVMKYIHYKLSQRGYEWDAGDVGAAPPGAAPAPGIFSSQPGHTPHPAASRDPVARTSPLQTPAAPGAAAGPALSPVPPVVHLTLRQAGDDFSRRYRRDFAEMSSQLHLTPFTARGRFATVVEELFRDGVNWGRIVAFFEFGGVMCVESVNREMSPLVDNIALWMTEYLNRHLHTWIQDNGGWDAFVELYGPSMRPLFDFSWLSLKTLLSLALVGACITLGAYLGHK

B1: gasdermin D (endogenous, THP-1 cells) (natural protein, human (endogenous in THP-1), UniProt P57764 1-484, looked up)
chain: MGSAFERVVRRVVQELDHGGEFIPVTSLQSSTGFQPYCLVVRKPSSSWFWKPRYKCVNLSIKDILEPDAAEPDVQRGRSFHFYDAMDGQIQGSVELAAPGQAKIAGGAAVSDSSSTSMNVYSLSVDPNTWQTLLHERHLRQPEHKVLQQLRSRGDNVYVVTEVLQTQKEVEVTRTHKREGSGRFSLPGATCLQGEGQGHLSQKKTVTIPSGSTLAFRVAQLVIDSDLDVLLFPDKKQRTFQPPATGHKRSTSEGAWPQLPSGLSMMRCLHNFLTDGVPAEGAFTEDFQGLRAEVETISKELELLDRELCQLLLEGLEGVLRDQLALRALEEALEQGQSLGPVEPLDGPAGAVLECLVLSSGMLVPELAIPVVYLLGALTMLSETQHKLLAEALESQTLLGPLELVGSLLEQSAPWQERSTMSLPPGLLGNSWGEGAPAWVLLDECGLELGEDTPHVCWEPQAQGRMCALYASLALLSGLSQEPH
notes: gasdermin D (GSDMD), endogenous in the human macrophage cell line THP-1; also called GSDMD; source: endogenous, THP-1 lysate
fold change of GSDMD associated with Bcl-2 after LPS and nigericin against basal conditions: 2.4 fold
